Assay results as given in the RNAGym collection of RNA variant scans (doi:10.1073/pnas.2313332121).
Variants at the floor of the assay were thinned out.

B1: TPR 5TU (parent)
chain: GGAUCUUCUCGAUCUAACAAAAAAGACAAAUCUGCCACAAAGCUUGAGAGCAUCUUCGGAUGCAGAGGCGGCAGCCUUCGGUGGCGCGAUAGCGCCAACGUUCUCAACUAUGACACGCAAAACGCGUGCUCCGUUGAAUGGAGUUUAUCAUG

Variants of: B1
Experiment: polymerase ribozyme fitness, log enrichment relative to wild type (log ratio); higher = more active; in vitro selection for triplet polymerase activity
Procedure, shortened: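 PCR was used to build mutant libraries for each subunit of a heterodimeric triplet polymerase ribozyme, which were then transcribed. A single in vitro selection round, in triplicate, used a frozen incubation at −7 °C and recovered extended constructs by gel excision, streptavidin beads and RT-PCR. Fitness is the logarithm of genotype enrichment relative to wild-type enrichment, averaged over replicates with inverse-variance weights. The logarithm is base 2, and after Illumina sequencing only genotypes with ≥10 input reads and ≥1 read per output were kept.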

A21U U77G U78C G84A and A21U C72U U77G U82G G100C U135G cannot be ordered by “polymerase ribozyme fitness (log ratio)” value: no more than -4.2 for the first, no more than -4.2 for the second.

First: A21G C96U
Second: A21G C96G
The “polymerase ribozyme fitness (log ratio)” value of the first is higher: 0.682 for the first, 0.474 for the second.

First: A21U A41G C95A C96A
Second: A21G U31A C95A
The “polymerase ribozyme fitness (log ratio)” value of the first is lower: -0.65 for the first, 0.669 for the second.

First: A21G A98U C129A U144A
Second: A22C C69A G80C C85U A89U A142G
The “polymerase ribozyme fitness (log ratio)” value of the first is higher: -3.61 for the first, no more than -4.2 for the second.

A21U C69A G88U A97C and A21G G50C A52C C79U C118U cannot be ordered by “polymerase ribozyme fitness (log ratio)” value: no more than -4.2 for the first, no more than -4.2 for the second.

First: A22C C51U G84U
Second: A21U G141C
The “polymerase ribozyme fitness (log ratio)” value of the first is lower: -2.78 for the first, 0.187 for the second.

Going from A21U G141U to A21U A47U C93U, the “polymerase ribozyme fitness (log ratio)” value falls from 1.9 to -0.679.

Going from A21G U77G G88C U135G G143U A147C to A21U C36A, the “polymerase ribozyme fitness (log ratio)” value rises from no more than -4.2 to -3.4.

A22C C27U U44A A47C U82C C95U A142C and A22C U33C G88A A97C C131G cannot be ordered by “polymerase ribozyme fitness (log ratio)” value: no more than -4.2 for the first, no more than -4.2 for the second.

Going from A21U A22U U53G to A21G A39U G83A U90G G92C C108G, the “polymerase ribozyme fitness (log ratio)” value falls from -0.816 to no more than -4.2.

A22C A28U A121U and A21G U77A A91G cannot be ordered by “polymerase ribozyme fitness (log ratio)” value: no more than -4.2 for the first, no more than -4.2 for the second.

A21G G42U C54A C72U C76U C79U G84U and A22C C27A U56A C85U C93A C99G A138U cannot be ordered by “polymerase ribozyme fitness (log ratio)” value: no more than -4.2 for the first, no more than -4.2 for the second.

First: A21C G94C C116U
Second: A21G G48A C54U G92A
The “polymerase ribozyme fitness (log ratio)” value of the first is higher: 0.209 for the first, no more than -4.2 for the second.

A21U A24U A64C U101G A110G A138C U145A and A21G A41U A64U C85G A98U cannot be ordered by “polymerase ribozyme fitness (log ratio)” value: no more than -4.2 for the first, no more than -4.2 for the second.

A21G A60G U78C A89U G92A G124U A137G G143U and A22C A28U C105U C123U cannot be ordered by “polymerase ribozyme fitness (log ratio)” value: no more than -4.2 for the first, no more than -4.2 for the second.

Going from A22C G92C U101G C108A A120U to A22C C57A A106G G141C, the “polymerase ribozyme fitness (log ratio)” value rises from -4.07 to -0.358.

First: A22C C54U G84U U104G C114G G133U
Second: A22C C85G U109A
The “polymerase ribozyme fitness (log ratio)” value of the first is lower: no more than -4.2 for the first, -3.43 for the second.

A21C G68U and A21U U78C G86C U148A cannot be ordered by “polymerase ribozyme fitness (log ratio)” value: no more than -4.2 for the first, no more than -4.2 for the second.

A21G A22G A37C G62C G94C C103A A106C U130A and A21U A52G C76A G81C C87G C114U A121C U146A cannot be ordered by “polymerase ribozyme fitness (log ratio)” value: no more than -4.2 for the first, no more than -4.2 for the second.

A21G C27U A40U C69U C95G A98G C99U A115U A142U and A22C A28U G58C A91C cannot be ordered by “polymerase ribozyme fitness (log ratio)” value: no more than -4.2 for the first, no more than -4.2 for the second.

Going from A21U A113C U127G C132U to A21C U55G C93U G126U, the “polymerase ribozyme fitness (log ratio)” value rises from no more than -4.2 to -0.141.

Going from A21C G88U A142U to A21U C87U, the “polymerase ribozyme fitness (log ratio)” value rises from no more than -4.2 to -0.254.

A21U C87G and A21U A26G U33A A142C G143U U146G C149G cannot be ordered by “polymerase ribozyme fitness (log ratio)” value: no more than -4.2 for the first, no more than -4.2 for the second.

Going from A21U A26C to A21G G25U G50U C54U A73G C93A C108G C129G U135G, the “polymerase ribozyme fitness (log ratio)” value falls from -1.48 to no more than -4.2.

A21G A60G G68U C93G C95G U139C and A21U A24C U33C G94A A107C cannot be ordered by “polymerase ribozyme fitness (log ratio)” value: no more than -4.2 for the first, no more than -4.2 for the second.

Compared with A21U C32G U55A G83U, A22C U53G G94A A119G is higher in “polymerase ribozyme fitness (log ratio)” value: no more than -4.2 for the first, -1.81 for the second.

Compared with A21U G25A A89C, A22C A26C A49C U56A G59U G68U C85U G86U G94U A97G U134A is lower in “polymerase ribozyme fitness (log ratio)” value: -3.68 for the first, no more than -4.2 for the second.

Compared with A21U A113U A137G U144A, A21G G46U is higher in “polymerase ribozyme fitness (log ratio)” value: -3.99 for the first, 0.452 for the second.

Going from A21G U55A C96U G117A to A21G A60G C63A C93G, the “polymerase ribozyme fitness (log ratio)” value falls from 0.86 to -3.23.

Compared with A22C G141U, A21G U53A A60U C96U C99G A110G is lower in “polymerase ribozyme fitness (log ratio)” value: 1.81 for the first, no more than -4.2 for the second.

First: A21G A30U A60C U77G C85A G94U G117U A150G
Second: A22C C38U C69U C85U
The “polymerase ribozyme fitness (log ratio)” value of the first is lower: no more than -4.2 for the first, -1.31 for the second.

First: A21C U148A
Second: A21U C36A G80A G88A G100U G124C G133A G143C U148A
The “polymerase ribozyme fitness (log ratio)” value of the first is higher: -3.11 for the first, no more than -4.2 for the second.

A21G U33G A52C A64C C75G C93G U151G and A21G C36G A47C A120C G133A cannot be ordered by “polymerase ribozyme fitness (log ratio)” value: no more than -4.2 for the first, no more than -4.2 for the second.

A21U A41C G86A G100U A110C and A22C G50A C63A C69G A89G U127G G141U A142U cannot be ordered by “polymerase ribozyme fitness (log ratio)” value: no more than -4.2 for the first, no more than -4.2 for the second.

First: A21U A73U C116A U134A G141C A150G
Second: A21U C54U U146A
The “polymerase ribozyme fitness (log ratio)” value of the first is lower: no more than -4.2 for the first, -0.081 for the second.

A22C C63U G67C G84U A98C G128C U144A U151A and A21C U33A G50A G62A U90C C95A cannot be ordered by “polymerase ribozyme fitness (log ratio)” value: no more than -4.2 for the first, no more than -4.2 for the second.

Going from A22C A26U U56A G59C C87G U111C to A22C U45A, the “polymerase ribozyme fitness (log ratio)” value rises from no more than -4.2 to -2.58.

A21U U33G A49C G50C C54A U82G G92U and A21U A49G U55A G84A U104C A137U G140C A150C cannot be ordered by “polymerase ribozyme fitness (log ratio)” value: no more than -4.2 for the first, no more than -4.2 for the second.

A21U U33A A40U G58A C85G A98C A106U G126C and A22C G84A G136C C149A cannot be ordered by “polymerase ribozyme fitness (log ratio)” value: no more than -4.2 for the first, no more than -4.2 for the second.

Going from A21C G62C to A22C G25A C51U A66C C85G C93U C116A, the “polymerase ribozyme fitness (log ratio)” value falls from -0.587 to no more than -4.2.

First: A21U A26U G83A A106G
Second: A21G C76G A97U
The “polymerase ribozyme fitness (log ratio)” value of the first is higher: -3.03 for the first, no more than -4.2 for the second.

Going from A22C C43U C51U C76A C93A C125G to A22C A37C, the “polymerase ribozyme fitness (log ratio)” value rises from no more than -4.2 to -0.165.
